Data published in the supplement of paper PMC7877785.
± gives the uncertainty stated by the source.

Test: self-splicing fitness, log relative to wild type (ln ratio); higher = more splicing; Tetrahymena group I intron in knt gene, E. coli kanamycin selection, DiMSum; sequences stand for … in CUCUCU…GGAGGGAAAAGUUAUCAGGCAUGCACCUGGUAGCUAGUCUUUAAACCAAUAGAUUGCAUCGGUUUAAAAGGCAAGACCGUCAAAUUGCGGGAAAGGGGUCAACAGCCGUUCAGUACCAAGUCUCAGGGGAAACUUUGAGAUGGCCUUGCAAAGGGUAUGGUAAUAAGCUGACGGACAUGGUCCUAACCACGCAGCCAAGUCCUAAGUCAACAGAUCUUCUGUUGAUAUGGAUGCAGUUCACAGACUAAAUGUCGGUCGGGGAAGAUGUAUUCUUCUCAUAAGAUAUAGUCGGACCUCUCCUUAAUGGGAGCUAGCGGAUGAAGUGAUGCAACACUGGAGCCGCUGGGAACUAAUUUGUAUGCGAAAGUAUAUUGAUUAGUUUUGGAGUACUCGUGGUCG
Method in brief: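 A randomised library covering all eight P1ex-region intron nucleotides was built with the intron in the knt kanamycin-resistance gene on pET-22b(+) and held in E. coli BL21(DE3). Cells were grown overnight at 37°C or 30°C on LB agar, with or without 25 μg/mL kanamycin, plus 100 μg/mL carbenicillin, 50 μM IPTG and 0.2% rhamnose, and pooled colonies were amplicon-sequenced on an Illumina HiSeq 2500. DiMSum fitness is the error-weighted combination of wild-type-normalised replicate fold changes, kanamycin versus none.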

Sequence	self-splicing fitness (ln) (30 °C)	self-splicing fitness (ln) (37 °C)
AAUUAGCAAUAUUACGGGUA	-1.52 ± 0.11	-0.428 ± 0.098
AAUUAGCAAUAUUACGGUUU	-1.16 ± 0.063	-0.716 ± 0.089
AAUUAGCAAUAUUACGUACG	-1.75 ± 0.11	-0.862 ± 0.12
AAUUAGCAAUAUUACGUAUC	-2.2 ± 0.15	-0.0316 ± 0.13
AAUUAGCAAUAUUACGUCCA	-0.685 ± 0.087	-1.2 ± 0.096
AAUUAGCAAUAUUACGUCCG	-1.12 ± 0.18	-0.444 ± 0.26
AAUUAGCAAUAUUACGUCGU	-0.641 ± 0.1	-0.862 ± 0.12
AAUUAGCAAUAUUACGUGGG	-3.58 ± 0.24	-3.64 ± 0.3
ACAAAGCAAUAUUACGAACC	-0.815 ± 0.21	-1.44 ± 0.19
ACAAAGCAAUAUUACGAAUU	-3.38 ± 0.2	-2.12 ± 0.18
ACAAAGCAAUAUUACGACAA	-0.955 ± 0.15	-0.443 ± 0.13
ACAAAGCAAUAUUACGACAC	-1.54 ± 0.084	-0.962 ± 0.1
ACAAAGCAAUAUUACGACGC	-0.112 ± 0.044	0.422 ± 0.066
ACAAAGCAAUAUUACGACUA	-0.772 ± 0.082	-0.796 ± 0.084
ACAAAGCAAUAUUACGACUU	-0.336 ± 0.06	0.0905 ± 0.079
ACAAAGCAAUAUUACGAGGG	-3.39 ± 0.11	-2.14 ± 0.11
ACAAAGCAAUAUUACGAUCU	-0.717 ± 0.067	-0.0747 ± 0.083
ACAAAGCAAUAUUACGAUGC	-1.61 ± 0.11	-1.9 ± 0.15
ACAAAGCAAUAUUACGCAAA	-2.72 ± 0.14	-1.6 ± 0.12
ACAAAGCAAUAUUACGCAGC	-2.63 ± 0.17	-0.879 ± 0.16
ACAAAGCAAUAUUACGCAUA	-2.12 ± 0.12	-0.921 ± 0.11
ACAAAGCAAUAUUACGCCCA	-1.24 ± 0.11	-0.225 ± 0.13
ACAAAGCAAUAUUACGCCCU	-0.361 ± 0.098	0.683 ± 0.14
